From a protein production outcome set (Wang et al. 2014)

test: label from the status in PepcDB records

Sequence | protein production
MSKPLYVFDMDETLINADCAMIWNAFLVEKGIATQPNFIEEDQRLMALYAEGKMDMEDYLEFCMAPLADMPIAHVLMLVEECVEHHILPKQFEQSKTLIAQLDRDDIDMVIISASVTFLVEAVGRRLGIPVALGIDLVEKHGSYSAEIAGVPSYREGKVIRLKAWLDAQPESYSEVHFYTDSINDLPLCEYADYAYLVNPCPQLKARADKANWTLLRWN | failed
MSKQAVYKIELKIFGYFILILMLSTITVILMLIVKNALEEVLIRYNENTLMTAKFLFCDVKKFSIVMYFFVFVIWSHLLLKRKVQYFINLSESTSEIAKGNFKVIIPVKREDEFGNLAKGINEIVEKFNFILKKEKEIEKTKIDLITNVSHDLRTPLTSILGYLELVENDQYKDEVALWYYIDIAYNKTKRLKVLIDDLFQLTTLNEHSMKLCKKEINIAELLKQLIGEYMLNFQKAGIRCRLKLTDEKLYVLGDAVLLIRAFENIIINCIKYSKTSEIMDVSVQRKGDMAVLNFINYGEPIPAIDIPYIFQRFYRVDKSRSDKLGGSGLGLAIAKNIIDITGGNIEVESDTTRTNFKIVLPCYGK | failed
MSKQLLALNIDGALLRSNGKIHQATKDAIEYVKKKGIYVTLVTNRHFRSAQKIAKSLKLDAKLITHSGAYIAEKIDAPFFEKRISDDHTFNIVQVLESYQCNIRLLHEKYSIGNKKKVNSNLLGKALIHPSDPIFYPVQFVESLSDLLMDEPVSAPVIEVYTEHDIQHDITETITKAFPAVDVIRVNDEKLNIVPKGVSKEAGLALVASELGLSMDDVVAIGHQYDDLPMIELAGLGVAMGNAVPEIKRKADWVTRSNDEQGVAYMMKEYFRMQQRKGFLDKFHMKR | not failed
MSKRSEVLEQFHGGLKNLELQTKRRMGLWGDPKENEEQTLFLEEIENELKQLENKENLKADNNTEFKEENQDTKENQPNDLFSLPLPTQTTINGIKEFVEEPVIETEKKETSQNEPIQEKKERIFKNFFSRIGFDKSIAPTMLFEEVRDASVIYHLEKKLGDYIFYVACFFFGTTALLIILLTILLPLKQKEPYLVQFSNNKENFALVQKADSSITANKALIRSLVGAYVLNRESITHIEQHEKMRQNTIKEQSSNEVWYEFEKLIAHYDSIYTNPLLTRKVKIANIYLDKDLAYIDIEVSLYHSGELESLKRYKVVMSFEFKKQEINFDSMSLNPTGFMVTSYDVTEIAIVNYPTAKAIGLFLAS | failed
MSKTDTAAVEATEENSNETTSDAATSSSGEKEAEFDNKIEADRSRRFDFLLKQTEIFTHFMTNSAKSPTKPKGRPKKIKDKDKEKDVADHRHRKTEQEEDEELLAEDSATKEIFRFDASPAYIKSGEMRDYQIRGLNWMISLYENGINGILADEMGLG | failed
MSKTLKEITDQKNELKKFFENFVLNLEKTEIFSEIQKNLTDEVLFVGCGSSYNLALTISYYFERVLKIRTKAIPAGEVAFQKIPDLEERGLAFLFSRTGNTTEVLLANDVLKKRNHRTIGITIEEESRLAKESDLPLVFPVREEAIVMTKSFSMILLSLMFLADKIAGNSTERFSELVGYSPEFFDISWKVIEKIDLKEHDHFVFLGMSEFFGVSLESALKCIEMSLTFSEAYSTLEYRHGPKALVKKGTLVFMQKVSGMDEQEKRLRKELESLGATVLEVGEGGDIPVSNDWKSAFLRTVPAQILGYQKAISRGISPDKPPHLEKTVVL | not failed
MSKVCQVTGKRPVVGNNVSHANNKTKRRFEPNLHHHRFWLESEKRFVRLRLTTKGMRIIDKLGIEKVVADLRAQGQKI | failed
MSKVFVNISLSLDGFMAPEGMDMAHFSDPTYKNWGAKWGALMAWALSQQYLREKLKLGTGGETGPVNDMVRHTFERTGAHIMGKRMFEGGERGWPEEAPFHTPVYVLTHERRNPWVRPGGTTFYFVNDGPEQALALAREAAGERDIRISGGANVIQQYLNLGLVDELEIALIPVIFGGGRRLFENLHEPLPQFRIDRVLASPTATHLRYVRL | not failed
MSKVIIPKIVGHRGVGKEGLAPENTLRSFVLCMERNIPYIETDLRVCKTGEIVLFHGTPEGTIPFYKDGTSRIGDLSLEELKRLDVGGGHTIPSLEELFVAIEEQKFNLKLNLELKGEEWKRKESGDHQRLLLLVEKYHMQERVDYCSFHHEALAHLKALCPDVKITYLFNYMGQPTPLDFVEQTQKACYGDANGVSMLFHYLTKEQVCTAHEKGLSVTVWMPWIFDDSEEDWKKCLELQVDLICSNYPFGLMNFLSNISE | not failed
MSKVNQQDIDKLIELVGGRGNIATVSHCITRLRFVLNDPAIARPKEIEQLRMVKGCFTNAGQFQVVIGTEVGDYYKALLATTGQTSADKEQVKQAARQNM | failed
MSLAARLIRSSRSNTFGIITDYVSTTPYSVDIVRGIQDWANANGKTILIANTGGSSEREVEIWKMFQSHRIDGVLYVTMYRRIVDPESGDVSIPTVMINCRPQTRELLPSIEPDDYQGARDLTRYLLERGHRRIGYIRLNPILLGAELRLDAFRRTTSEFGLTENDLSISLGMDGPVGAENNYVFAAATEMLKQDDRPTAIMSGNDEMAIQIYIAAMALGLRIPQDVSIVGFDDFRTVTMALKPELTTAALPYYDLGREGAKWLNDLIAGEKIYPGSRVVSCKLVERSSAAFGEGHHHHHH | not failed
MSLAEVNPMSKPLVRWPINPLRTAVIVVDMQKVFCEPTGALYVKSTADIVQPIQKLLQAARAAQVMVIYLRHIVRGDGSDTGRMRDLYPNVDQILARHDPDVEVIEALAPQSDDVIVDKLFYSGFHNTDLDTVLRARDVDTIIVCGTVTNVCCETTIRDGVHREYKVIALSDANAAMDYPDVGFGAVSAADVQRISLTTIAYEFGEVTTTAEVIRRIESAYPHGREGHHHHHH | not failed
MSLAKPIEAHTVSPVNPNAQQTTKTVMNWLAHLPNRTENRVLSGAFGGYSHDTFSMAEADRIRSATGQSPAIYGCDYARGWLETANIEDSIDVSCNGDLMSYWKNGGIPQISLHLANPAFQSGHFKTPITNDQYKKILDSSTVEGKRLNAMLSKIADGLQELENQGVPVLFRPLHEMNGEWFWWGLTSYNQKDNERISLYKQLYKKIYHYMTDTRGLDHLIWVYSPDANRDFKTDFYPGASYVDIVGLDAYFQDAYSINGYDQLTALNKPFAFTEVGPQTANGSFDYSLFINAIKQKYPKTIYFLAWNDEWSAAVNKGASALYHDSWTLNKGEIWNGDSLTPIVEEGHHHHHH | not failed
MSLANKPLAKALETISGIPITPFRKSDGSIDWHHYKETVDRIVDNGIDVIVPCGNTSEFYALSLEEAKEEVRRTVEYVHGRALVVAGIGYATSTAIELGNAAKAAGADAVMIHMPIHPYVTAGGVYAYFRDIIEALDFPSLVYFKDPEISDRVLVDLAPLQNLVGVKYAINDLPRFAKVVRSIPEEHQIAWICGTAEKWAPFFWHAGAKGFTSGLVNLLPQKAVEMLEALRNNDNDAVWRIWEDIVPFEDLRGKYNQGNNVVVIKEAMEMLRQNAGVTRAPVNELSNEDKQLVTELLSSWKLLQPTKGEGHHHHHH | not failed
MSLAPYRVDFILLEHFSMASFTVAMDVLVTANLLRADSFQFTPLSLDGDRVLSDLGLELVATELSAAALKELDLLVVCGGLRTPLKYPELDRLLNDCAAHGMALGGLWNGAWFLGRAGVLDDYGCSIHPEQRASLSERSPQTRITPASFTLDRDRLSAASPNGAMELMLGLVRRLYGDGLAEGVEEILSFSGAREGHHHHHH | not failed
MSLAQKLRQASSRLLGVVFELQQPFHGDLVEQIYAAATRRGYDVMLSAVAPSRAEKVAVQALMRERCEAAILLGTRFDTDELGALADRVPALVVARASGLPGVGAVRGDDVAGITLAVDHLTELGHRNIAHIDGADAPGGADRRAGFLAAMDRHGLSASATVVTGGTTETEGAEGMHTLLEMPTPPTAVVAFNDRCATGVLDLLVRSGRDVPADISVVGYDDSRLARIPHVQMTTISQDATHMAEAAVDGALAQISGDKAVDLVLAPHLVRRATTGPVAHREGHHHHHH | not failed
MSLAQYPVIGIDDDEFATAKKLITKQEVRAVTLSKLRLQDDLVMWDIGAGSASVSIEASNLMPNGRIFALERNPQYLGFIRDNLKKFVARNVTLVEAFAPEGLDDLPDPDRVFIGGSGGMLEEIIDAVDRRLKSEGVIVLNAVTLDTLTKAVEFLEDHGYMVEVACVNVAKTKGLTEYKMFESHNPVYIITAWKSDEGHHHHHH | not failed
